Results: patent US9075059B2, “Compositions and methods for detecting plectin-1 as a biomarker for cancer” (University of Virginia Patent Foundation, priority 2009, dated 2015)
Non-standard residues stand in square brackets, D forms with d. No end group written: not given here. *: point of attachment. DOTA = O=C(O)CN1CCN(CC(=O)O)CCN(CC(=O)*)CCN(CC(=O)O)CC1; βAla = NCCC(=O)O

What was measured:
[1] = test system: tumors from orthotopically implanted L3.6 cells; test: SPECT/CT in vivo imaging of orthotopic PDAC; settings: labeled peptide
Experimental: Anesthesia (1%-2% isoflurane in oxygen) was delivered throughout the imaging. CT acquisition used 200 evenly spaced projections spanning 200 degrees over approximately 5 minutes. Mice are repositioned axially for pinhole SPECT scanning 60 evenly spaced projection views were obtained over 180 degrees using two gamma cameras simultaneously. The acquisition time was approximately 30 minutes. The two cameras were fitted with 1 mm diameter tungsten pinholes. […] The reconstructed SPECT voxel size was 0.65×0.65×0.65 mm on a 60×60×60 image matrix. All SPECT images were corrected for radioactivity decay but not for gamma ray attenuation.

Plectin-1 [2] = biological target: T1, Plectin-1 (Homo sapiens, UniProt Q15149); test: Affinity of tetrameric versus monomeric plectin-1 targeted peptide; format: binding; set-up: L3.6 cells were plated on a 96 well plate and incubated with 111In-tPTP and increasing log concentrations of tPTP or scrambled tetramer; endogenous in cells; host or cells: L3.6 pancreatic cancer cells
Plectin-1 [3] = biological target: T1, Plectin-1; test: In vitro competition assay: 111In-tPTP versus unlabeled tPTP or ncPTP on L3.6 cells; format: binding; set-up: L3.6 cells were plated on a 96 well plate and incubated with 111In-tPTP and increasing log concentrations of tPTP or scrambled tetramer; endogenous in cells; host or cells: L3.6 pancreatic cancer cells; settings: competition with 111In-labeled tPTP, 1 hr room temperature, read-out: Ki (inhibition dissociation constant)
Plectin-1 [4] = biological target: T1, Plectin-1; test: competition with 111In-tPTP on L3.6 cells, gamma counting

T1 sequence (Q15149 whole entry): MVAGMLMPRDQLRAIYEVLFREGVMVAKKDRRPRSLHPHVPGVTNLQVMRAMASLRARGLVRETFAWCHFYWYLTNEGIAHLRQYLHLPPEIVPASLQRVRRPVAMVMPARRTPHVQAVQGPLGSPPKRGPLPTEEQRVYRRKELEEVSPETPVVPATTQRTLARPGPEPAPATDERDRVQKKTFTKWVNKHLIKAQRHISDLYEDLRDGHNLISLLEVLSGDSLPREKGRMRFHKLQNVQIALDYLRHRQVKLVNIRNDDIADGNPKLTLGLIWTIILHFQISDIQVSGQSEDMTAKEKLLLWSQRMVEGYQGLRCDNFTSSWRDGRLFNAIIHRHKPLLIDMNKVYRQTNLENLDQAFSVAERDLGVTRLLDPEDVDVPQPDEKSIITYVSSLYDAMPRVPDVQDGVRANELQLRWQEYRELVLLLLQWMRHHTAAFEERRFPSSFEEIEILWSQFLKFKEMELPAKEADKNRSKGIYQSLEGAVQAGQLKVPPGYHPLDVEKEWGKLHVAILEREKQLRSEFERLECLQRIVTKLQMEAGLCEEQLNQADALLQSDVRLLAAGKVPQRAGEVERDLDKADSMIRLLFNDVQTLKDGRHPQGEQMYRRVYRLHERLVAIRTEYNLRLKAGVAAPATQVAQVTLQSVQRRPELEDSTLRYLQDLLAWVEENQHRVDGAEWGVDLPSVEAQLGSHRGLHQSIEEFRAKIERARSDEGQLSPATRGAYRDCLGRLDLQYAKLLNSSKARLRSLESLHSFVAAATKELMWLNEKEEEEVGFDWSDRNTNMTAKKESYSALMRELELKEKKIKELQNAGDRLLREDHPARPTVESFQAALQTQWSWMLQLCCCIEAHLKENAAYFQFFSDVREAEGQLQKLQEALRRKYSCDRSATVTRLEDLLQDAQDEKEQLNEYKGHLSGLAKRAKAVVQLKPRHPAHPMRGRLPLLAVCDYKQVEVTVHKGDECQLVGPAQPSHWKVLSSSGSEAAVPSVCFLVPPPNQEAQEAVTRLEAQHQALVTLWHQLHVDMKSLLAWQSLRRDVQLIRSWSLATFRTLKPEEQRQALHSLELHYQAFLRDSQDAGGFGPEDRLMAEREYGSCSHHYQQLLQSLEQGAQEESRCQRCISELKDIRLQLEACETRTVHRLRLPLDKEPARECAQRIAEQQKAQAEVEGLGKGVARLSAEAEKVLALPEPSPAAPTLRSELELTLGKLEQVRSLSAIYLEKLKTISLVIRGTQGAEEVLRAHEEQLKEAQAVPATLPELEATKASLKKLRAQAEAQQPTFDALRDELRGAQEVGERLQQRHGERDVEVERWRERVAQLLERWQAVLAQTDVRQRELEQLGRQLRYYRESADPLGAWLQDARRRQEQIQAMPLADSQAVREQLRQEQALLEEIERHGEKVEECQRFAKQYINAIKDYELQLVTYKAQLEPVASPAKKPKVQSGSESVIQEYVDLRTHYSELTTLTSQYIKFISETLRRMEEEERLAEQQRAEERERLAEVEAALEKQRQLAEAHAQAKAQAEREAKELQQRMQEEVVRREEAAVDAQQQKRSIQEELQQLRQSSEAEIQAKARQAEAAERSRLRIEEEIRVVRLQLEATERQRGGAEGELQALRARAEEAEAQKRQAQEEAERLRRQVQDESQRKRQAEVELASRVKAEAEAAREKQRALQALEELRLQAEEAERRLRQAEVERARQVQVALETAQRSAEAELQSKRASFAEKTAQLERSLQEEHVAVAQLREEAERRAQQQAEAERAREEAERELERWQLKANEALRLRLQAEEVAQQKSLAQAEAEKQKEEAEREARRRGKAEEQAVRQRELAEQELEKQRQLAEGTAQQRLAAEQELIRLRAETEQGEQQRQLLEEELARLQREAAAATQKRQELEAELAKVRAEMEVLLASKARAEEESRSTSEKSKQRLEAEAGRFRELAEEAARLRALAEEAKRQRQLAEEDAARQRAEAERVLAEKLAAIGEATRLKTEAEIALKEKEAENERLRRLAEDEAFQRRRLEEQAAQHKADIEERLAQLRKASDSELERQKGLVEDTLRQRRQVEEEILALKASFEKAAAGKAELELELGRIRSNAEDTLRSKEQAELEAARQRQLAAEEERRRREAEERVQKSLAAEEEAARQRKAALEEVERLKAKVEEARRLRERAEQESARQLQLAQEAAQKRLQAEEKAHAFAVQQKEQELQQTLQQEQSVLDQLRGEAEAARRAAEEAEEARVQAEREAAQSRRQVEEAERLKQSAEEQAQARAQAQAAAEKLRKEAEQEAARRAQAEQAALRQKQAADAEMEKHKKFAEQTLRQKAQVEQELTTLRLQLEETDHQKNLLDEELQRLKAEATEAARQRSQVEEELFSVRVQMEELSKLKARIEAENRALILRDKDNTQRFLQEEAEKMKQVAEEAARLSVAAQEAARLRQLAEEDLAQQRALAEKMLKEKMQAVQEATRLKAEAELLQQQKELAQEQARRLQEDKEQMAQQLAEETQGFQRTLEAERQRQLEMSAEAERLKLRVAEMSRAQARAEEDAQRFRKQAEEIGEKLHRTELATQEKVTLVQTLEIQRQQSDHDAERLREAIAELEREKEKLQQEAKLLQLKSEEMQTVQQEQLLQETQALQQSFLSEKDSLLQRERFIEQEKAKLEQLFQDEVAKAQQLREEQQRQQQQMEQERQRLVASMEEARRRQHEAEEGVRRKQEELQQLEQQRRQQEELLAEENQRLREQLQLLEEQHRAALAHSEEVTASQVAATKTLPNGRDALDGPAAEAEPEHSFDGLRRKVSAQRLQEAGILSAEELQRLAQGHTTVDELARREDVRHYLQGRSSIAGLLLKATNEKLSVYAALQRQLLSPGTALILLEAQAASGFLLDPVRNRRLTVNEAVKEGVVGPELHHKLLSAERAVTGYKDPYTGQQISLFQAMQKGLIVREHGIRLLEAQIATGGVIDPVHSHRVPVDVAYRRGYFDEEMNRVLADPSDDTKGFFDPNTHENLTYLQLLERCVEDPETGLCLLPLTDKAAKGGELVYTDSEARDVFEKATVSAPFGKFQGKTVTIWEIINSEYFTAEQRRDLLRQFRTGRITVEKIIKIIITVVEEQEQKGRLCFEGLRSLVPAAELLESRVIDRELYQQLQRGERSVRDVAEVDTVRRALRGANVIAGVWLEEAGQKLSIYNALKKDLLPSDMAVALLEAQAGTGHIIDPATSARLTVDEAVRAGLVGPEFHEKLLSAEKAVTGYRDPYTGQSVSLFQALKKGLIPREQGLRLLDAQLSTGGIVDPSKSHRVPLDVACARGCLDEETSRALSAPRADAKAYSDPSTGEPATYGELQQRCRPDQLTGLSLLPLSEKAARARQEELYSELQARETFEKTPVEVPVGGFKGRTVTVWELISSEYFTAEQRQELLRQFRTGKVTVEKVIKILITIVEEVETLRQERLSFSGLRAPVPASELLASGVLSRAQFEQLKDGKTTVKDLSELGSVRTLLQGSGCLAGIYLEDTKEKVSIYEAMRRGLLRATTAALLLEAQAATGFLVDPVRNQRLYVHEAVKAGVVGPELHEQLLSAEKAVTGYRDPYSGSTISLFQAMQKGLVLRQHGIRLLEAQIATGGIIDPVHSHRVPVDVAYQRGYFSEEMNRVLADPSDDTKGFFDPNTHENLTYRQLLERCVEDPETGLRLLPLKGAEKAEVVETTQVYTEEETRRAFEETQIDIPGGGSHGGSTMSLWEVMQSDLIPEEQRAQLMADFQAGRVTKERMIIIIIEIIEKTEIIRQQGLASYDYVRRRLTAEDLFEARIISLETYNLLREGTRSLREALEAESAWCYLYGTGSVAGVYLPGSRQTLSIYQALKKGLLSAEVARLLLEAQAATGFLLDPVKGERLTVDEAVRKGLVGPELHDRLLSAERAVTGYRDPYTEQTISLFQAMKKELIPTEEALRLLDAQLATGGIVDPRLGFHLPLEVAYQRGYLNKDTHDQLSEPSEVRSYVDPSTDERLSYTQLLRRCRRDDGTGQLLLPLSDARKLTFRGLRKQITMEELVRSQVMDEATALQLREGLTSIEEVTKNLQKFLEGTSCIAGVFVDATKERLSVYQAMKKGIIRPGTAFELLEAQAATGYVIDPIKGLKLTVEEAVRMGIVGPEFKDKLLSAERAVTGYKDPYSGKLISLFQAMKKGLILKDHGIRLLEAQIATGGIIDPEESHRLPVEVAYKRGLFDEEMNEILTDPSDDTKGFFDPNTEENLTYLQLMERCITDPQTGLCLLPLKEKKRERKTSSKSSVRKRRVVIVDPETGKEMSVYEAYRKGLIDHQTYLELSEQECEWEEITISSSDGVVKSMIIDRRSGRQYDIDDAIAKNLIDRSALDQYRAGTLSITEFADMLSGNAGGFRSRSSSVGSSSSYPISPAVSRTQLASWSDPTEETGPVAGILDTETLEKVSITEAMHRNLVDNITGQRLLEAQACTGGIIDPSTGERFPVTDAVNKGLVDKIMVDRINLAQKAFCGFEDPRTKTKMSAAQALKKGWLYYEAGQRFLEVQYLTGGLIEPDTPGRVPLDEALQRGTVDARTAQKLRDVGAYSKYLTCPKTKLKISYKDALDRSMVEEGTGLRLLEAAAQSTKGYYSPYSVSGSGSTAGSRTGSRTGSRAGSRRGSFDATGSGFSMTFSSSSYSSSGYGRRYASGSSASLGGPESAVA

## KTLLPTP [monomeric peptide]
[1]
  time before visualization: 48 h
Plectin-1 [2]
  affinity: 160 nmol

## ncPTP-4(βAKHVMSKQGGS (PEG5000))KKKDOTAβA-NH2 (peptide [βAla]KHVMSKQGGS; chain Lys-Lys-Lys(DOTA)-{βAla-NH2}; not fully specified (some residues, C-terminus); also: tetramer: four chain-1 arms on lysine core, each arm's Ser joined via PEG5000 to the lysine core)
Plectin-1 [3]
  Ki: 2860 nM

B1: tetrameric plectin-1 targeted peptide (tPTP) complex, (β…(PEG5000))4 KKKKDOTAβA-NH2 (peptide)
peptide: [βAla]KTLLPTPGGS-PEG5000
chain: KKKK(DOTA)-{βAla-NH2}
modifications: not fully specified (some residues); also: branched core [(arm)2-Lys]2-Lys-Lys(DOTA): four arms, C-terminal Ser of each joined through PEG5000 to an amino group of the core
Plectin-1 [4]
  Ki: 830 nM

B2: ncPTP-4(β… (PEG5000))KKKDOTAβA-NH2 (peptide)
peptide: [βAla]KHVMSKQGGS-PEG5000
chain: Lys-Lys-Lys
modifications: not fully specified (some residues, C-terminus); also: tetramer: four arms joined via PEG5000 to lysine core, attachment lysines not given here
Plectin-1 [4]
  Ki: 2860 nM
